B1: human IL-33 (R&D Systems, #3625-IL-010/CF) (ligand, UniProt O95760 112-270, looked up)
chain: SITGISPITEYLASLSTYNDQSITFALEDESYEIYVEDLKKDEKKDKVLLSYYESQHPSNESGDGVDGKMLMVTLSPTKDFWLHANNKEHSVELHKCEKPLPDQAFFVLHNMHSNCVSFECKTDPGVFIGVKDNHLALIKVDSSENLCTENILFKLSET
B3: cyno IL-33 N-His (ligand)
chain: MGSSHHHHHHSSGLVPRGSHMSITGISPITESLASLSTYNDQSITFALEDESYEIYVEDLKKDKKKDKVLLSYYESQHPSSESGDGVDGKMLMVTLSPTKDFWLQANNKEHSVELHKCEKPLPDQAFFVLHNRSFNCVSFECKTDPGVFIGVKDNHLALIKVDYSENLGSENILFKLSET

Assay [1] has as its target T1, human ST2L on HEK-BLUE IL-33/IL-1beta cells (human, UniProt Q01638 19-556).
T1 sequence: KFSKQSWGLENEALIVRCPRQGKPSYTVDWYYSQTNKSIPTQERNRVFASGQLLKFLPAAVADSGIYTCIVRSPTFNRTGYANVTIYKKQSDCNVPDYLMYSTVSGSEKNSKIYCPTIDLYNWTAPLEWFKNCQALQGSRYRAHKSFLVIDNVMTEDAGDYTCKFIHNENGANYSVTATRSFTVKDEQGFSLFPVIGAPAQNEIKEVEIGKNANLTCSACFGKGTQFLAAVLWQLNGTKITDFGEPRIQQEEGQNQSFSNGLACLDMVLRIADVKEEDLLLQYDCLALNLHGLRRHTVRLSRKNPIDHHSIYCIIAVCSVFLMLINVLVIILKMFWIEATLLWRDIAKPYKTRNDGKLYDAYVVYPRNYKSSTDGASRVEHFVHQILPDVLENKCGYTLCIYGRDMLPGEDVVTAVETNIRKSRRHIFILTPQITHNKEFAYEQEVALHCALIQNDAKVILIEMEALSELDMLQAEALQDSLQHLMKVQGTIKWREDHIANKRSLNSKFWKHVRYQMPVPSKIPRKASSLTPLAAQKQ
In words: cell-based or functional assay.

For assay [2], the target named is B1. The assay is described as follows: cell-based or functional assay.
For assay [3], the target named is B3. In words: SPR Biacore T200, 37 C. Put shortly: (§1)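 Antibodies captured via anti-Fc on CM5 chip; IL-33 injected at 3.7–100 nM (three-fold series), 4 min association, 10 min dissociation, 30 μl/min, ADA pH 7.4 buffer with 0.15 M NaCl, EDTA, Tween-20, at 25 °C or 37 °C. KD = koff/kon from 1:1 Langmuir fit; t1/2 = ln(2)/(60*koff).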
In assay [4] the target is B1. The assay is described as follows: SPR Biacore T200, 37 C. A digest of the protocol: as §1
The target of assay [5] is B1. In words: cell-based or functional assay. The source holds these as a separate data set.
Another assay concerns the target T2, biotinylated cyno IL-33 (cynomolgus monkey, UniProt A0A2K5W3I1 112-269, biotin-labeled with EZ-LINK NHS-PEG4-Biotin).
T2 construct: also called biotin-cyIL-33
T2 sequence: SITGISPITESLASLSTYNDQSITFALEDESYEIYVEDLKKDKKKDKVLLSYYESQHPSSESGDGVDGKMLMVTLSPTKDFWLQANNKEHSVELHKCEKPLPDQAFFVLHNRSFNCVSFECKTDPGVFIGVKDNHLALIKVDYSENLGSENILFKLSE
In words: competitive ELISA, biotin-cyIL-33 to coated hST2-Fc. Put shortly: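 Recombinant human ST2-Fc coated at 1 μg/ml; biotin-IL-33 (final 20 pM human, 45 pM cyno) premixed 1 h RT with serially diluted antibody (0–300 nM final), then bound to ST2-Fc 1 h RT. Streptavidin-polyHRP/TMB, A450; IC₅₀ from four-parameter fit, max blocking relative to IL-33-alone signal minus background.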

The target of the next assay is T3, biotinylated human IL-33 (human, UniProt O95760 112-270, biotin-labeled with EZ-LINK NHS-PEG4-Biotin).
T3 construct: also called biotin-huIL-33
T3 sequence (looked up): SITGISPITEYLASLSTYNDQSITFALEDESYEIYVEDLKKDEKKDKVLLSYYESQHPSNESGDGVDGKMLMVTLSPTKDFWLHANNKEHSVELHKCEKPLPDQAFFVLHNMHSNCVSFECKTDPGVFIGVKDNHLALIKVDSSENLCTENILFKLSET
The assay is described as follows: competitive ELISA, biotin-huIL-33 to coated hST2-Fc. The procedure: The ability of the anti-IL-33 antibody 10C12.38.H6.87Y.58I IgG4 and each anti-IL-33 antibody listed in Table 5 (RG1-RG20) to block either human IL-33 or cyno IL-33 binding to human ST2 receptor was tested in a competitive binding ELISA. Briefly, 1 μg/ml of recombinant human ST2-Fc chimera protein prepared in coating buffer (50 mM sodium carbonate, pH 9.6) was coated on a 384-well MAXISORP® plate (Nalgene Nunc International; Rochester, N.Y.) and incubated overnight at 4° C. On the next day, non-specific binding was blocked with PBS containing 0.5% (w/v) solution of bovine serum albumin (BSA). Fixed concentrations of biotinylated human or cyno IL-33 prepared in assay buffer (25 mM PBS, pH 7.2, 0.1% BSA, 0.05% TWEEN®-20) were mixed with an equal volume of serially-diluted anti-IL-33 antibodies or assay buffer alone and incubated for 1 h at room temperature. The final assay concentrations of biotinylated human IL-33 or cyno IL-33 were 20 pM and 45 pM, respectively, and the final assay concentration of each antibody ranged from 0-300 nM. The pre-mixed solutions were added to the ST2-Fc coated plate and incubated for 1 h at room temperature. The binding of biotinylated IL-33 to coated ST2-Fc was detected by the sequential addition of Streptavidin Poly-HRP80 (Fitzgerald; Buckinghamshire, UK) and 3,3′,5,5′-tetramethyl benzidine (TMB) Microwell Peroxidase Substrate System (KPL; Gaithersburg, Md.). The absorbance (450 nm) was recorded using a […] ASCENT® plate reader (Thermo Scientific; Rockford, Ill.). The binding activity (%) of biotin-IL-33 to ST2 in the presence of anti-IL-33 was plotted as a function of antibody concentration. The data generated were fitted to a four-parameter equation to determine IC₅₀ values for each antibody (FIGS. 25A and 25B) using Prism software (Graphpad Software; La Jolla, Calif.). The maximum blocking (%) of each antibody was calculated as the ratio of the reduction in signal measured in the presence of antibody relative to the difference between the signal with IL-33 alone and background measurements.

Assay [6] addresses B3. The assay is described as follows: SPR Biacore T200, 25 C. Put shortly: as §1
The target of assay [7] is B1. In words: SPR Biacore T200, 25 C. Put shortly: as §1
Assay [8] has as its target B1. In words: cell-based or functional assay. The source holds these as a separate data set.
Assay [9] has as its target B1. In words: cell-based or functional assay. The source holds these as a separate data set.
The target of assay [10] is B1. The assay is described as follows: cell-based or functional assay. This is another data set of the same source.
The target of assay [11] is B1. The assay is described as follows: cell-based or functional assay. The source holds these as a separate data set.
The target in assay [12] is T1, human ST2L on HEK-BLUE IL-33/IL-1beta …. In words: cell-based or functional assay. The source holds these as a separate data set.

Where two headings read alike, the source gives them in different places.

Consider B1, for which, in [1], the “EC50 (SEAP reporter OD 620, HEK-BLUE IL-33/IL-1beta cells)” value is 5.5 pM.

B2: H4H9640P (antibody, IgG4, V domains shown)
VH: QVQLQESGPGLVKPSETLSLTCTVSGGSISSYYWSWIRQPPGKGLELIGYIYYSGSTNYNPSLKSRVTISVDTSKNHFSLKLSSVTAADTAVYYCARSQYTSSWYGSFDIWGQGTMVTVSS
VL: DIQMTQSPSSVSASVGDRVTITCRASQGISTWLAWFQQKPGKAPKLLIYAASTLQGGVPSRFSGSGSGPEFTLTISSLQPEDFATYYCQQANSFPWTFGQGTKVEIK
notes: also called RG6
On to B2, for which, in [2], the “IC50, IL-33-induced phospho-p38 in primary human basophils, 500 pM hIL-33” value amounted to 3.9e-13 M. In addition, the Kd with cyno IL-33 N-His [3] was found to be 4.2 nM; in [4] it was 0.359 nM; with cyno IL-33 N-His [6], 2.17 nM; in [7], 0.549 nM. Moreover, the koff with cyno IL-33 N-His [3] worked out at 0.0392 s⁻¹; in [4], 0.000626 s⁻¹; in the assay with cyno IL-33 N-His [6], 0.000528 s⁻¹; in [7], 0.000438 s⁻¹. Moreover, the kon with cyno IL-33 N-His [3] was determined as 9.34e+06 M⁻¹ s⁻¹; in [4] it was 1.74e+06 M⁻¹ s⁻¹; with cyno IL-33 N-His [6] it was 244000 M⁻¹ s⁻¹; in assay [7], 797000 M⁻¹ s⁻¹. Further, the t1/2 in the assay with cyno IL-33 N-His [3] worked out at 0 min; in assay [4], 18 min; with cyno IL-33 N-His [6] it was 22 min; in [7], 26 min. Besides, the “IC50; SEAP reporter (OD 620), HEK-BLUE IL-33/IL-1beta cells, 10 pM hIL-33” value in assay [5] came to 6.1e-10 M. Moreover, the IC50 in the assay with biotinylated cyno IL-33 is 45 nM; in the assay with biotinylated human IL-33, 0.19 nM. Moreover, the entries for the “Maximum Blocking” value with biotinylated cyno IL-33 and with biotinylated human IL-33 were 25% and 80%, respectively. Besides, the “IC50; IFN-gamma ELISA, primary human NK cells, 260 pM hIL-33 + IL-12” value in [8] was 2.4e-09 M. For the same molecule, in assay [9], the “IC50 (read off the curve)” value was roughly 0.4 pM. For the same molecule, the “Ph-p38 MFI at 0.4 nM Ab (500 pM human IL-33, primary basophils)” value in assay [10] amounted to 99 MFI. Further, the “Ph-p38 MFI at 2 nM Ab (500 pM human IL-33, primary basophils)” value in assay [11] turned out to be 52 MFI.

Turning to B3, the “EC50 (SEAP reporter OD 620, HEK-BLUE IL-33/IL-1beta cells)” value in assay [12] is 4 pM.

(Values after patent US20190092852A1 (Genentech, published 2019).)
